Consider one molecule from article PMC3584020.

The target in the experiment is LexA-PRAME, P78395. In words: yeast two hybrid. To be noted: chain shown with the change; LexA-PRAME (1-509); β-galactosidase activity normalised to amount of protein in the extracts; parent: est. 160; read off a plot.
Chain of LexA-PRAME, P78395 (P78395 whole entry): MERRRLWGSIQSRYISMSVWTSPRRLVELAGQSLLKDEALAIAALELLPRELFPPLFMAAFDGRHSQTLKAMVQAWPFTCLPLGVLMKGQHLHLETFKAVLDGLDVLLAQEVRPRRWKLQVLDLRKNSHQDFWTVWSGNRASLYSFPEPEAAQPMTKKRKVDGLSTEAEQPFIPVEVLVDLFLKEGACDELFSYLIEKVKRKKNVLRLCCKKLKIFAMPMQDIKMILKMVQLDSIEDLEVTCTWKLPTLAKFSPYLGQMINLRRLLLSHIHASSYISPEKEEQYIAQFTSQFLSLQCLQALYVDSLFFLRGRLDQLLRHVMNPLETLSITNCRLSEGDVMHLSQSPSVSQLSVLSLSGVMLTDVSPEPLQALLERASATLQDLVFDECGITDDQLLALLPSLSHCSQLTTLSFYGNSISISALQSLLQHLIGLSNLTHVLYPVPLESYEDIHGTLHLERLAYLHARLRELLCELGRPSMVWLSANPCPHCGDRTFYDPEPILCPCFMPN

B1: GAL4 AD-fused C. elegans ELC (wELC) L47D; L49D; Y88D; Y91D (protein)
chain: MADQNNAIQCDQDAAQPKQYGGIEGPTSQYVKLVSSDDHEFIIKREDADTSGTIRAMLSGPGVYAENESNVVYFREIPSHVLQKVCQDFADKVRYTHAATEIPEFPIPPDVALELLMAANFLDC
On to B1, for which the response (Units β-Galactosidase) was determined as 5.
